Molecular target: human LDL (low-density lipoprotein) (human)
Assay: SPR; LDL amine-coupled to a CM5 chip (Biacore T100); LDLR^ecto (5-388 nM) or ALK1^ecto (0.19-15.3 uM) as analytes, single cycle kinetics; 25 °C; 25 mM HEPES pH 7.4, 150 mM NaCl, 0.1 mM CaCl2; 1:1 binding model; apparent

Sequence of ALK1^ecto-Fc (P37023 22-118): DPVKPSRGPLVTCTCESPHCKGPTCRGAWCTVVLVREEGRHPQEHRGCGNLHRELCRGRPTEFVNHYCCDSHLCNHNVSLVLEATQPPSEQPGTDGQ

| Kd [nM] | Substance |
| --- | --- |
| 200 | ALK1^ecto-Fc (from UniProt P37023 22-118) (Fc fusion) |
| 7 | LDLR^ecto-(His)6 (from UniProt P01130 22-788) (domain or fragment) |

Reference: article PMC5121336
